In patent US20250325680A1, “HIGH-PERMEABILITY PROTEIN OR POLYPEPTIDE CONJUGATE AND USE THEREOF” (Hangzhou Tito Biotechnology Partnership Enterprise ( …, priority 2023, published 2025):

Key:
CT26 tumor spheres = assay: Permeation in multicellular tumor spheres; format: cell-based; details: BSA 20 μg/mL, 2 h incubation
Protocol: The permeability of albumin and a conjugate BSA-OPDMA thereof was verified with multicellular tumor spheres. 1.0 mL of DMEM and the prepared CT26 tumor spheres were added to a confocal imaging dish, and then 20 μL of ^Cy5BSA-OPDMA or ^Cy5BSA was added (where a concentration of BSA was 20 μg/mL). After being incubated for 2 h, tumor spheres were subjected to laser scanning confocal microscopy imaging every 20 μm along a Z-axis. […] Moreover, the more the OPDMA bonded, the stronger the promotion on the permeability of BSA. […] OPDMA with a molecular weight of 10 k could more efficiently promote the penetration of ^Cy5BSA than OPDMA with a molecular weight of 5 k. This conclusion was further confirmed by the quantitative fluorescence data in FIG. 13.

[1] = Intraocular permeation experiment after eye-dropping administration; format: in vivo; details: mouse, 4 h, laser confocal imaging of eyeball sections
Protocol: 6.6 mg of BSA ([…]) was dissolved in 1 mL of PBS at pH 7.4, 66 μg of a fluorescent dye Cy5-NHS was added, and stirring was conducted for 6 h at room temperature. Ultrafiltration-washing was repeated multiple times to produce fluorescently-labeled ^Cy5BSA. The conjugate ^Cy5BSA-OPDMA and other protein conjugates were labeled by the same method.
Upper and lower eyelids of each mouse were gently pulled open with a cotton swab. Solutions of ^Cy5BSA and ^Cy5BSA-OPDMA in PBS each were dropped to a conjunctival sac of a mouse, and a few seconds later, eyelids were slowly closed. At 4 h after the eye-dropping administration, eyeballs were immediately collected, washed three times with PBS, fixed overnight in an FAS eyeball fixative solution, and then transferred to a 30% sucrose solution for dehydration. When sank to a bottom of the solution, eyeballs were carefully taken out, embedded with an optimal cutting temperature (OCT) embedding medium, and sectioned by a freezing microtome to produce 10 μm-thick eyeball sections. The eyeball sections were stained with a 4′,6-diamidino-2-phenylindole (DAPI) dye, and finally the fluorescence distributions of each solution in eyeballs and retinas were observed under a laser scanning confocal microscope. The fluorescence distribution inside a retina of a mouse eyeball was analyzed with Image J.

[2] = Skin permeation experiment; format: in vivo, C57BL/6 mice; details: mouse dorsal skin, 4 h after administration, laser confocal
Protocol: C57BL/6 mice each with a body weight of 20 g were selected and randomly divided into four groups. The hair on the back of each mouse was removed with a depilatory cream. After 24 h of raising, a silicone diffusion cell was fixed on the back, and Cy5-labeled ^Cy5BSA and ^Cy5BSA-OPDMA were added at equal amounts. 4 h after the administration, the dorsal skin of each mouse was carefully collected, rinsed 3 times with PBS, and sectioned by a freezing microtome to produce 20 μm-thick skin sections. A skin permeation effect of each solution was observed under a laser scanning confocal microscope.

laser-induced CNV model = assay: Laser-induced choroidal neovascularization (CNV) model, eye drops; format: in vivo, C57BL/6J mice; details: eye drops 2 μL, 10 mg/ml of aflibercept, four times a day for 7 d, day 7
Text: 40 female C57BL/6J mice at 6 to 8 weeks were selected, and the anterior segments of both eyes and the fundus were examined to be normal before the experiment. An unilateral eye of each mouse was selected and subjected to laser photocoagulation to establish a CNV model, where a corresponding contralateral eye was not treated. Then treated mice were randomly divided into a PBS group, an aflibercept-OPDMA conjugate group, an OPDMA+aflibercept mixture group, and an aflibercept intravitreal injection group. Immediately after the laser photocoagulation, mice in each group were administered with eye drops at a dose of (2 μL, 10 mg/ml of aflibercept) four times a day consecutively for 7 d. For the injection group, a dose was 10 μg/mouse, and the injection was conducted merely once during the experiment. After laser photocoagulation, on day 7 post-modeling, choroidal flat mounts were prepared from the experimental eyes. The flat mounts were subjected to antibody staining using IB4 and imaged under a fluorescence microscope. Thee neovascularization area was measured using image J software. These indices were used to assess the treatment efficacy of each group.

Substance | permeation in tumor spheres (fluorescence) (CT26 tumor spheres) | intraocular permeation (fluorescence distribution in eyeballs and retinas) [1] | skin permeation effect (fluorescence in skin sections) [2] | therapeutic effect on CNV (neovascularization area) (laser-induced CNV model) | therapeutic effect on CNV (neovascularization area) (laser-induced CNV model; listed as aflibercept-OPDMA conjugate)
^Cy5BSA-OPDMA: Cy5-labeled conjugate of BSA with OPDMA; chain number and weight not stated in the text | presented a strong red fluorescence within tumor spheres | could penetrate into intraocular cells, especially a retina in a posterior segment of an eye | the fluorescence could penetrate into the deep skin | – | –
^Cy5BSA: BSA fluorescently labeled with Cy5-NHS [reference compound] | could only reach the edges of tumor spheres | only adhered to a surface of an eyeball | faint red fluorescence was observed merely in a surface layer of the skin | – | –
aflibercept-OPDMA: conjugate of aflibercept with tertiary amine oxide polymer OPDMA | – | had a similar intraocular permeation ability | – | could indeed exert a therapeutic effect after being dropped to eyes | prominent therapeutic effect
aflibercept: the protein (aflibercept) itself | – | – | cannot permeate into the skin | – | –
